Data taken from patent US20040138431A1.

Tests used:
[1] = biological target: P75 and trkA receptors on rat PC-12 cell membranes (rat) (UniProt P35739); test: cell-based or functional assay
[2] = biological target: P75 and trkA receptors on rat PC-12 cell membranes (rat) (UniProt P35739); test: radioreceptor assay, competitive binding against NGF standard on rat PC-12 cell membranes

Sequence of 120/120 rhNGF homodimer (NGF-120, full-length 120/120 nerve growth factor) (P01138 122-241 limits assumed): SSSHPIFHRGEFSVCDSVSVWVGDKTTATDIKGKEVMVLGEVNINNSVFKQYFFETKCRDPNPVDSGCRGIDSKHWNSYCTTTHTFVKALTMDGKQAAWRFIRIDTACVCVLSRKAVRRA
Sequence of P75 and trkA receptors on rat PC-12 cell membranes (rat) (P35739 33-799, chain 1 of 2): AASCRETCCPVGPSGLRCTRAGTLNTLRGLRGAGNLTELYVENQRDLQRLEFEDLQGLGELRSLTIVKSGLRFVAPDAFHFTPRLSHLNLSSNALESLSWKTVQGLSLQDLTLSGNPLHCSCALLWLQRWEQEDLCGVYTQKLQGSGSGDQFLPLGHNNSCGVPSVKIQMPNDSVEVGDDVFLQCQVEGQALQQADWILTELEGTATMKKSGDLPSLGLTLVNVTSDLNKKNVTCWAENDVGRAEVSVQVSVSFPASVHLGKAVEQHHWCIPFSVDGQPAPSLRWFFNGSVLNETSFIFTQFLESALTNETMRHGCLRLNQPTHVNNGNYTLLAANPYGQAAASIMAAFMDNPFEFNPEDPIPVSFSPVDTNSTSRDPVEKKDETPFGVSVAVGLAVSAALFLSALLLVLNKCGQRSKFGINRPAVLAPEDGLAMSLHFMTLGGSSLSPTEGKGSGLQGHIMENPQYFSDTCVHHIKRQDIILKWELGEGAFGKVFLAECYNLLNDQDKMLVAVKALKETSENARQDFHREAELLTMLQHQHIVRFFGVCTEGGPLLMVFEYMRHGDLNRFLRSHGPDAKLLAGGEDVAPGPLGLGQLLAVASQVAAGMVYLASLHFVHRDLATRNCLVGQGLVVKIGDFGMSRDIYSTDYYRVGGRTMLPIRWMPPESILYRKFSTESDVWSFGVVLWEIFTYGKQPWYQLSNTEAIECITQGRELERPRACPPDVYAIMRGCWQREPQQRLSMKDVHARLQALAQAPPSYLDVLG
Sequence of P75 and trkA receptors on rat PC-12 cell membranes (rat) (P07174 30-425, chain 2 of 2, further chain): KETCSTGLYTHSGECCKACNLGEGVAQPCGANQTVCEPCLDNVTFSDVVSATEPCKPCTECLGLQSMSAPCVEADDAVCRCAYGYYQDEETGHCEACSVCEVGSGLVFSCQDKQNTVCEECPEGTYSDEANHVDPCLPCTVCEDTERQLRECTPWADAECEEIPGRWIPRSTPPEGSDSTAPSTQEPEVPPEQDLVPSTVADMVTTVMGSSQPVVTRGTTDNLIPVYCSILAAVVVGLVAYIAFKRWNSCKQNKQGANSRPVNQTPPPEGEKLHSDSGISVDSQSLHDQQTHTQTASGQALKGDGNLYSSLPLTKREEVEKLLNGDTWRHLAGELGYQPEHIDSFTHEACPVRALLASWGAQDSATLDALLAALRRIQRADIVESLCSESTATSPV

Work on “120/120 rhNGF homodimer (NGF-120, full-length 120/120 nerve growth factor) (from UniProt P01138 122-241) (ligand)” yielded a PC-12 based assay, activity relative to the 118/118 form [1] of 60% and a percent as active as the 118/118 species [2] of 80 to 90%.
